Results as given in US20170233495A1 (CALYPSO BIOTECH, published 2017).
Where two headings read alike, the source gives them in different places.

Tests used:
[1] = target: T1, recombinant human proMMP9 (full length, latent form) (human, UniProt P14780 20-707); assay: cell-based or functional assay
[2] = target: T2, neutrophil-derived human monomeric MMP9 (human, UniProt P14780 20-707); assay: cell-based or functional assay
[3] = target: T3, neutrophil-derived human dimeric MMP9 (human, UniProt P14780 20-707); assay: cell-based or functional assay
T3 sequence (P14780 20-707): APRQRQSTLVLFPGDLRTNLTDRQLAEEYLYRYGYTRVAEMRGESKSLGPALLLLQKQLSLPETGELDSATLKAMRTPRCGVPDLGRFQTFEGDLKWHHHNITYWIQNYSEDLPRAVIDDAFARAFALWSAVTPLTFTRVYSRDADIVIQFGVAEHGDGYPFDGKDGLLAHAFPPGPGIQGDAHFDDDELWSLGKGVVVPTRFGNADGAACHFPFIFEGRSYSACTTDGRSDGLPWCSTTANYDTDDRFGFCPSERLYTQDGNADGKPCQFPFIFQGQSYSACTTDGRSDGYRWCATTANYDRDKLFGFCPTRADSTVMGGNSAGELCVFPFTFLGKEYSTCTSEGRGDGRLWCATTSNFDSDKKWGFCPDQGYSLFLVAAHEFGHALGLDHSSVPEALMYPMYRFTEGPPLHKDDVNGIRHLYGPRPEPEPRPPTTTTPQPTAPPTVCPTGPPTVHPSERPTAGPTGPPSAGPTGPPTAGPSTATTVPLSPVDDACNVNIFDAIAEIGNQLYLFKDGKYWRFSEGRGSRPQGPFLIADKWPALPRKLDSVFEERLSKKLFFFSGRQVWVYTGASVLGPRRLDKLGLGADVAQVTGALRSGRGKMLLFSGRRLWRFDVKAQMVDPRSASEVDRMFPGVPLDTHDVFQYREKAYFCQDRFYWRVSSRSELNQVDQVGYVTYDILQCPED

[4] = target: T4, neutrophil-derived human NGAL/MMP9 complex (human, UniProt P80188 21-198); assay: cell-based or functional assay
T4 sequence (chain, as listed by the source limits assumed, chain 1 of 2): as the sequence (P14780 20-707) above
T4 sequence (P80188 21-198 limits assumed, chain 2 of 2): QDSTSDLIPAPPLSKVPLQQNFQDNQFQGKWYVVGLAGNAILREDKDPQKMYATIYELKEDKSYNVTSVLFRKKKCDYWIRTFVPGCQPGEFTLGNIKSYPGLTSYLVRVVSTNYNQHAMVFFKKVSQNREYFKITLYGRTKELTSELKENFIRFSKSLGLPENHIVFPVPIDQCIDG

[5] = target: T2, neutrophil-derived human monomeric MMP9; assay: cell-based or functional assay; remark: listed apart in the source
[6] = target: T4, neutrophil-derived human NGAL/MMP9 …; assay: cell-based or functional assay; remark: listed apart in the source
[7] = target: T1, recombinant human proMMP9 (full length, …); assay: SPR (BIAcore), antibody captured by anti-human Fc, antigen titrated 4.7-150 nM
Description: (§1) In a second step, pro-MMP9 or MMP3-activated MMP9 were titrated from 4.7 to 150 nM in 2-fold dilutions.

[8] = target: MMP3-activated recombinant human MMP9 (human, UniProt P14780 107-707); assay: as above
Chain of MMP3-activated recombinant human MMP9 (P14780 107-707): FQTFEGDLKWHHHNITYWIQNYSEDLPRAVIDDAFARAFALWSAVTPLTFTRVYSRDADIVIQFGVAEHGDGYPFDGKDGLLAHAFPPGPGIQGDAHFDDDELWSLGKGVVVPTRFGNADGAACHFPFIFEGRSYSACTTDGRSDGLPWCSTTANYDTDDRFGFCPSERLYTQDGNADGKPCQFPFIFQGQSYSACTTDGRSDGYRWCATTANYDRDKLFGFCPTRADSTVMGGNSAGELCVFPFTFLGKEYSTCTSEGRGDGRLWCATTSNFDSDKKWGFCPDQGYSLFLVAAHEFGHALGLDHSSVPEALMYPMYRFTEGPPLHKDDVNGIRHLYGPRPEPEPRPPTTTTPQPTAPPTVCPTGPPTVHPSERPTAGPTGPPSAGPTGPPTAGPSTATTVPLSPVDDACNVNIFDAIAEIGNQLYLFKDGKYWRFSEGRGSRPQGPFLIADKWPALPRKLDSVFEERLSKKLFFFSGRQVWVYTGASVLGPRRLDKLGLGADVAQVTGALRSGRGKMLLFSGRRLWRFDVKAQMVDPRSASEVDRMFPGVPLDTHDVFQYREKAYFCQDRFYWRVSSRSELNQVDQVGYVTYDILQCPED
Description: as §1

[9] = target: T5, human MMP9 (i.e. activated MMP9), catalytically active caspase-cleaved recombinant MMP9 (human, UniProt P14780 107-707); assay: cell-based or functional assay
T5 sequence (P14780 107-707): as above

[10] = target: T1, recombinant human proMMP9 (full length, …); assay: cell-based or functional assay; remark: listed apart in the source
[11] = target: T5, human MMP9 (i.e. activated MMP9), …; assay: cell-based or functional assay; remark: listed apart in the source
[12] = target: Cynomologus monkey (cyno) proMMP9 (Cynomologus monkey); assay: cell-based or functional assay
rat proMMP9 = rat proMMP9 (rat, UniProt P50282 20-708); assay: cell-based or functional assay
Chain of rat proMMP9 (P50282 20-708): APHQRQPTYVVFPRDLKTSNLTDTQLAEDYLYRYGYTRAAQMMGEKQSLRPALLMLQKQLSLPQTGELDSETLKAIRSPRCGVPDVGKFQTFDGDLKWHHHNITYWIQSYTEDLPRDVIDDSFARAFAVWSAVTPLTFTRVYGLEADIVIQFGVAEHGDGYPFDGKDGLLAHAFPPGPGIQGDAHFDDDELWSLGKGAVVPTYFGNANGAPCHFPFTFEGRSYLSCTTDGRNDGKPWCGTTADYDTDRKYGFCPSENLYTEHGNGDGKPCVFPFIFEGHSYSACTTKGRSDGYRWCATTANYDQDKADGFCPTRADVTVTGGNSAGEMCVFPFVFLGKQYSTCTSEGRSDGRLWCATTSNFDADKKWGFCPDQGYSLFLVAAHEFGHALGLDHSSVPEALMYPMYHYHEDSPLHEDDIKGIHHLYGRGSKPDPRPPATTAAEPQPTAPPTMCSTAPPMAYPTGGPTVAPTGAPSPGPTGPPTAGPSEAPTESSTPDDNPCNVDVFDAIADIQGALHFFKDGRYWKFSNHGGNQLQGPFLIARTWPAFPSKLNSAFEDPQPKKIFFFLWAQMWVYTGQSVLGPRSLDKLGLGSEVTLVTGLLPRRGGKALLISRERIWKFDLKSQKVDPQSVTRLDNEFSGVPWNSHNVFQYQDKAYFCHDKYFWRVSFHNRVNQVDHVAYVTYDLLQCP

mouse proMMP9 = mouse proMMP9 (mouse, UniProt P41245 20-730); assay: cell-based or functional assay
Chain of mouse proMMP9 (P41245 20-730): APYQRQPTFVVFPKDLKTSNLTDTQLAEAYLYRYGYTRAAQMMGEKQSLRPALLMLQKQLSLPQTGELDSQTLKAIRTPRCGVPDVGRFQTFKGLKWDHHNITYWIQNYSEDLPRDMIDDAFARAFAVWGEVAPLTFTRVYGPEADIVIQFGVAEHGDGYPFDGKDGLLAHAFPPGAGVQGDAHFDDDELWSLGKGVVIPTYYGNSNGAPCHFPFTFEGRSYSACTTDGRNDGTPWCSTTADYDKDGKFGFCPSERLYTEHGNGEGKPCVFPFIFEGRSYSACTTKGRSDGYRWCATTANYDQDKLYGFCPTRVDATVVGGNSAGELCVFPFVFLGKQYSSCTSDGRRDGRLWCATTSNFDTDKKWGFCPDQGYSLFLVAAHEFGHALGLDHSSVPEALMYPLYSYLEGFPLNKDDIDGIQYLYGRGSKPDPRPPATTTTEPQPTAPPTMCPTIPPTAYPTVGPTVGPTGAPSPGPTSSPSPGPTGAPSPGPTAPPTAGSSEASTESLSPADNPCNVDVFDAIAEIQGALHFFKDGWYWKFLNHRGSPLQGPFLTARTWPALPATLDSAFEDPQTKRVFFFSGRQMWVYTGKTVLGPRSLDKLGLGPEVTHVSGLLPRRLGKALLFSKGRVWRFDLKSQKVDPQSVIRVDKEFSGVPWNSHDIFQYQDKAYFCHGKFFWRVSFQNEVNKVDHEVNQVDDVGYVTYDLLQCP

mouse active MMP9 = mouse active MMP9 (mouse, UniProt P41245 108-730, limits assumed); assay: cell-based or functional assay
Chain of mouse active MMP9 (P41245 108-730 limits assumed): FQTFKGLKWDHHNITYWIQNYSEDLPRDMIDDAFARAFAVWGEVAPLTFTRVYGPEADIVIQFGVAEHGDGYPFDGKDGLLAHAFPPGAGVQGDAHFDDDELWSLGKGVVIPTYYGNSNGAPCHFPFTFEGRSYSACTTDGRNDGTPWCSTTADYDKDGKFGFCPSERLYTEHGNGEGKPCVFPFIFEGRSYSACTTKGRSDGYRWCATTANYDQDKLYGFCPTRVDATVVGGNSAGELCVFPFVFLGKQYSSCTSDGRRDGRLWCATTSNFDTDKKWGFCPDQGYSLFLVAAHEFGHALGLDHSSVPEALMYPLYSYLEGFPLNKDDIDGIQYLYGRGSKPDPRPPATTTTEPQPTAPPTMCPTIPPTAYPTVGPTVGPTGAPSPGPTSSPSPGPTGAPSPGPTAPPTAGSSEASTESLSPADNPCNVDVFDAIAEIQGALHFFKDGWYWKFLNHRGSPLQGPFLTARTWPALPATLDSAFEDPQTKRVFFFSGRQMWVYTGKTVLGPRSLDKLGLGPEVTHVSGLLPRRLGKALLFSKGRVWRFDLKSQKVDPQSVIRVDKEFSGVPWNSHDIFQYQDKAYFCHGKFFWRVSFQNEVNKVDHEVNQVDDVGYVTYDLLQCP

[13] = target: T2, neutrophil-derived human monomeric MMP9; assay: cell-based or functional assay; remark: listed apart in the source
[14] = target: T3, neutrophil-derived human dimeric MMP9; assay: cell-based or functional assay; remark: listed apart in the source
[15] = target: T3, neutrophil-derived human dimeric MMP9; assay: cell-based or functional assay; remark: listed apart in the source
[16] = target: T1, recombinant human proMMP9 (full length, …); assay: SPR (BIAcore), antibody captured by anti-human Fc, antigen titrated 4.7-150 nM; SPR (BIAcore), antibody captured by anti-human Fc, pro-MMP9 up to 150 nM; lower bound estimated from <1% binding
Description: as §1

T1 sequence (P14780 20-707): as the sequence (P14780 20-707) above
T2 sequence (P14780 20-707): as above

B1: comparative antibody 1 (antibody known as AB0041) (antibody, human IgG4 S228P, kappa, V domains shown)
VH: QVQLKESGPGLVAPSQSLSITCTVSGFSLLSYGVHWVRQPPGKGLEWLGVIWTGGTTNYNSALMSRLSISKDDSKSQVFLKMNSLQTDDTAIYYCARYYYGMDYWGQGTSVTVSS
VL: DIVMTQSHKFMSTSVGDRVSITCKASQDVRNTVAWYQQKTGQSPKLLIYSSSYRNTGVPDRFTGSGSGTDFTFTISSVQAEDLAVYFCQQHYITPYTFGGGTKLEIKR
notes: also called anti-MMP9 comparative antibody 1
IC50, DQ-gelatin digestion, MMP3/MMP9 assay [1]: 0.2 nM | efficacy of inhibition, MMP3/MMP9 assay with neutrophil-derived MMP9 [2]: 25% | efficacy of inhibition, MMP3/MMP9 assay with neutrophil-derived MMP9 [3]: 25% | efficacy of inhibition, MMP3/MMP9 assay with neutrophil-derived MMP9 [4]: 25% | IC50 (read off the curve) [5]: ~1 nM | IC50 (read off the curve) [6]: ~1 nM | Kd [7]: 0.9 nM | Kd [8]: 5 nM

B2: F20-VH-GL1-V4-V9/B08-VL-GL6c (antibody, human IgG4 S228P, V domains shown)
VH: EVQLVESGGGLVQPGRSLRLSCAASGFTFNDYPMHWVRQAPGKGLEWVSGISSRSGSVGYAESVKGRFTISRDNAKNSLYLQMNSLRAEDTALYYCARDKIYYGSGSYDFYYYYGMDVWGQGTTVTVSS
VL: QSALTQPASVSGSPGQSITISCTGTSNDVGAYNRVSWYQQHPGKAPKLMIYGVSNRPSGVSNRFSGSKSGNTASLTISGLQAEDEADFYCTSYSSSTTSYVVFGGGTKVTVL
notes: The light chain constant region is not tied to it; also called F20-VH/B08-VLc variant; F20-VH/B08-VLc
IC50, DQ-gelatin digestion, MMP9 assay with highly purified activated MMP9 [9]: 2.6 nM | efficacy of inhibition, MMP3/MMP9 assay with neutrophil-derived MMP9 [2]: 100% | efficacy of neutralisation, APMA-activated neutrophil-derived MMP9, OmniMMP RED cleavage [2]: 100% | efficacy of inhibition, MMP3/MMP9 assay with neutrophil-derived MMP9 [3]: 100% | efficacy of neutralisation, APMA-activated neutrophil-derived MMP9, OmniMMP RED cleavage [3]: 100% | efficacy of inhibition, MMP3/MMP9 assay with neutrophil-derived MMP9 [4]: 100% | efficacy of neutralisation, APMA-activated neutrophil-derived MMP9, OmniMMP RED cleavage [4]: 100% | Efficacy, DQ-gelatin digestion, MMP3/MMP9 assay [10]: 100% | IC50 (nM), DQ-gelatin digestion, MMP3/MMP9 assay [10]: 9.52 nM | Efficacy, DQ-gelatin digestion, MMP9 assay [11]: 100% | IC50 (nM), DQ-gelatin digestion, MMP9 assay [11]: 0.97 nM | Efficacy, MMP3/MMP9 gelatin assay [12]: 100% | IC50 (nM), MMP3/MMP9 gelatin assay [12]: 5.86 nM | Efficacy, MMP3/MMP9 gelatin assay (rat proMMP9): 100% | IC50 (nM), MMP3/MMP9 gelatin assay (rat proMMP9): 3.16 nM | Efficacy, MMP3/MMP9 gelatin assay (mouse proMMP9): 100% | IC50 (nM), MMP3/MMP9 gelatin assay (mouse proMMP9): 7.8 nM | Efficacy, MMP9 gelatin assay (mouse active MMP9): 100% | IC50 (nM), MMP9 gelatin assay (mouse active MMP9): 1.27 nM | IC50 (read off the curve) [13]: ~10 nM | IC50 (read off the curve) [14]: ~10 nM | IC50 (read off the curve) [5]: ~2 nM | IC50 (read off the curve) [15]: ~0.5 nM | IC50 (read off the curve) [6]: ~2 nM | Kd [8]: 11.7 nM | Kd [16]: > 15000 nM
